How the values were obtained:
[1] = target: T1, CLDN6 endogenously expressed by human cancer cell lines (ARK2, OVCA429) (human, UniProt P56747 1-220); experiment: FACS, 1.5 µg Ab, OVCA429 cells
T1 construct: Untagged endogenous protein; also called Endogenous CLDN6+
T1 sequence: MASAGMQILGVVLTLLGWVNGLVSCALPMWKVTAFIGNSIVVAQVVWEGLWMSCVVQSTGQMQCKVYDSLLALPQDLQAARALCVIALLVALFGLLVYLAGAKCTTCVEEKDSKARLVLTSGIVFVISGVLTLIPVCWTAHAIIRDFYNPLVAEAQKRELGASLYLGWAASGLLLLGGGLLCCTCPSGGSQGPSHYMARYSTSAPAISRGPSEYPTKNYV

[2] = target: T2, human CLDN6 fused to GFP, expressed on engineered HEK293T cells (HEK293T-CLDN6-mGFP) (human, UniProt P56747 1-220); experiment: FACS, 0.3 µg Ab, 293T clone with human CLDN6
T2 construct: It calls residues 1-21 a signal peptide; also called Claudin-6; HEK293T-CLDN6-mGFP Artificial CLDN6+; not shown: mGFP tag
T2 sequence: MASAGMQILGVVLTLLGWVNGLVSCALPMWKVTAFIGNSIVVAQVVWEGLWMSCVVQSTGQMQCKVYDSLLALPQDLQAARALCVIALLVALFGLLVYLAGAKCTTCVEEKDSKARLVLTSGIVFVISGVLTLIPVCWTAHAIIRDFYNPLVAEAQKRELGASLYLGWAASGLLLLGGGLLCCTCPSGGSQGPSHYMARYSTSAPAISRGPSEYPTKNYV
Method in brief: (§1)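 Humanized antibodies were tested by flow cytometry, essentially as in the source's direct-binding protocol, on engineered 293T clones expressing human CLDN6. Each antibody was used at 0.3 µg or 1.5 µg. In that protocol, EDTA-detached cells were incubated with Alexa Fluor 647 NHS ester-labelled antibody for 30 min on ice in the dark, washed and read on a BD Accuri C6 in channel FL4H. Fluorescence gives relative antigen binding strength.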

[3] = target: T1, CLDN6 endogenously expressed by human …; experiment: FACS, 1.5 µg Ab, ARK2 cells
Experimental: (§2) FACS assays were also carried out to determine relative antigen binding strengths of the humanized antibodies (at either 1.5 μg or 0.3 μg) for binding to CLDN6 as expressed by the indicated cancer cell lines. 2nd Ab only was used as a negative control.

[4] = target: T3, mouse CLDN6 fused to GFP, expressed on engineered HEK293T cells (mouse, UniProt Q9Z262 1-219); experiment: FACS, 293T clone with mouse CLDN6, dose not given
T3 construct: whole, on cells; also called HEK293T-CLDN6-mGFP Artificial CLDN6+ (mouse); murine CLDN6; not shown: GFP tag
T3 sequence (looked up): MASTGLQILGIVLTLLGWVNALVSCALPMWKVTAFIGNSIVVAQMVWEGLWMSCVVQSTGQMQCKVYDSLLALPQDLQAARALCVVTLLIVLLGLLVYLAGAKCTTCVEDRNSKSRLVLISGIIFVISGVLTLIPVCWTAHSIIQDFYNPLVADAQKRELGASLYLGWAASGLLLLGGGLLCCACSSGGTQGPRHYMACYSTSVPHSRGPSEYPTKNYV
Experimental: Humanized antibodies described in Table 8 were constructed and expressed as essentially described in Example 5. FACS assays were carried out as essentially described in Example 5 to determine relative antigen binding strengths of the humanized antibodies. Two doses (1.5 μg or 0.3 μg) of the humanized antibodies were tested for binding to either human CLDN6 or murine CLDN6 which proteins were expressed by engineered 293T clones.

[5] = target: T2, human CLDN6 fused to GFP, expressed on …; experiment: FACS, 1.5 µg Ab, 293T clone with human CLDN6
Method in brief: as §1

[6] = target: T1, CLDN6 endogenously expressed by human …; experiment: FACS, 0.3 µg Ab, ARK2 cells
Experimental: as §2

B1: AB4-chim (antibody, V domains shown)
VH: QVQLQQSGAELARPGASVKMSCKASGYTFTSYTMHWIKQRPGQGQEWIGYINPSSTYTHYIKKFKDKATLTADKSSSTAYMQLRSLTSEDSAVYYCSRGELGGFAYWGQGTLVTVSA
VL: DVVMTQTPLSLPVSLGDQASISCRSSQSLVHSDGNTYLNWYLQKPGQSPKLLIYKVSNRFSGVPDRFSGSGSGTDFTLKIRRVEAEDLGVYFCSQSTHVPYTFGGGTKLEIK
notes: 'chim' is the pre-humanized form (parental variable regions); also called pre-humanized (chimeric) form of AB4
[1]
  FACS fluorescence: 64800
[2]
  FACS fluorescence: 176000
[3]
  FACS fluorescence: 38400
[4]
  FACS fluorescence: 3640
[5]
  FACS fluorescence: 327000
[6]
  FACS fluorescence: 19100
